This is an account of results in patent US20220098305A1 (Hoffmann-La Roche, published 2022).

Changes are numbered by the printed parent chain. Numbers in names are those of the source. Read-outs that look alike come from different tables or passages of the source.

For assay [1], the target named is T1, cynomolgus ICOS (cynomolgus, UniProt Q9Y6W8 21-195 (human entry)).
T1 chain: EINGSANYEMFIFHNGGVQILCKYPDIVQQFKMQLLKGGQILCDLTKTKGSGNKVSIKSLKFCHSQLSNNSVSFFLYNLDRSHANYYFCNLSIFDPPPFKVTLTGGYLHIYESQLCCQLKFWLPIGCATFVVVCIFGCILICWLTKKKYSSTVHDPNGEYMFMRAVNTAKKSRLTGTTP
Description: flow cytometry, activated cynomolgus PBMCs, CD8+ subset. As to the method: (§1) Briefly, suspension cells were harvested, counted, checked for viability and re-suspended at 1 million cells per ml in FACS buffer (PBS with 0.1% BSA). […] The staining was fixed for 20 min at 4° C. in the dark, using 75 μl of 1% PFA in FACS buffer per well.
(§2) Briefly, cynomolgus PBMCs were activated for 48 hours using Dynabeads™ Human T-Activator CD3/CD28 (Thermo Fischer #11131D) according to manufacturer instruction and stored in RPMI1640 medium containing 10% FCS and 1% Glutamax (Gibco 35050061) at 37° C., in a humidified incubator until subsequent binding experiment was performed, as described above.

Assay [2] has as its target T2, human ICOS (human, UniProt Q9Y6W8 21-199).
T2 sequence: T1 chain with K54T, R81H, T129A, F136L, T152S, G176D, T177V, P179L
In words: cell-based or functional assay.

Assay [3] deals with T2, human ICOS. Description: flow cytometry on CHO cells expressing human ICOS, PE-labelled secondary antibody; y axis printed LOG10(MFI PE).
Assay [4] deals with T2, human ICOS. In words: flow cytometry, SR cells.
Assay [5] deals with T2, human ICOS. In words: flow cytometry, CHO cells expressing human ICOS. As to the method: as §1
(§3) Fluorescence was analyzed by FACS using a FACS Fortessa (Software FACS Diva). Binding curves and EC₅₀ values were obtained using GraphPadPrism 7.

Assay [6] deals with T1, cynomolgus ICOS. Description: flow cytometry on cynomolgus PBMCs activated 48 h with CD3/CD28 beads, CD8+ subset, MFI. As to the method:
as §1, §2

Assay [7] has as its target T1, cynomolgus ICOS. Description: flow cytometry on cynomolgus PBMCs activated 48 h with CD3/CD28 beads, CD4+ subset, MFI. As to the method:
as §1, §2

Assay [8] concerns the target T3, human FAP (human, UniProt Q12884 1-760).
T3 construct: also called hu FAP
In words: flow cytometry on NIH/3T3-huFAP clone 19 cells, geometric MFI.

Assay [9] addresses T3, human FAP. Description: flow cytometry, NIH/3T3-huFAP clone 19 cells.
Assay [10] has as its target T1, cynomolgus ICOS. In words: flow cytometry, activated cynomolgus PBMCs, CD4+ subset. As to the method:
as §1, §2

In assay [11] the target is T2, human ICOS. In words: flow cytometry, CHO cells expressing human ICOS. This is another data set of the same source.
Assay [12] addresses T3, human FAP. Description: flow cytometry, NIH/3T3-huFAP clone 19 cells. As to the method:
as §1, §3
This is another data set of the same source.

For assay [13], the target named is T2, human ICOS. In words: flow cytometry on human PBMCs pre-activated 48 h with PHA-L and IL-2, CD4+ subset, MFI. As to the method: as §1
Briefly, Peripheral blood mononuclear cells (PBMCs) were prepared by Histopaque (Sigma-Aldrich, Cat No. 10771-500ML Histopaque-1077) density centrifugation of enriched lymphocyte preparations of heparinized blood obtained from a Buffy Coat (“Blutspende Zürich”). The blood was diluted 1:2 with sterile DPBS and layered over Histopaque gradient (Sigma, #H8889). After centrifugation (450×g, 30 minutes, room temperature), the plasma above the PBMC-containing interphase was discarded and PBMCs transferred in a new falcon tube subsequently filled with 50 ml of PBS. The mixture was centrifuged (400×g, 10 minutes, room temperature), the supernatant discarded and the PBMC pellet washed twice with sterile PBS (centrifugation steps 350×g, 10 minutes). The resulting PBMC population was counted automatically (Cedex HiRes) and stored in RPMI1640 medium containing 10% FCS and 1% Glutamax (Gibco 35050061). […] After incubation the PBMCs were used for a subsequent binding experiment, as described above.

For assay [14], the target named is T3, human FAP. In words: flow cytometry, NIH/3T3-huFAP clone 19 cells. This is another data set of the same source.
The target of assay [15] is T2, human ICOS. In words: flow cytometry on human PBMCs pre-activated 48 h with PHA-L and IL-2, CD4+ subset, MFI. The source holds these as a separate data set.

B1: Molecule 15, bispecific 2+1 anti-ICOS (009v1)/anti-FAP (4B9) huIgG1 P329GLALA kih (bispecific antibody)
heavy 1: EVRLDETGGGVVQPGRPMELSCVASGFTFSDYWMNWVRQSPEKGLEWVAQIRNKPYNYETYYSDSVKGRFTISRDDSKSRVYLQMNNLRAEDMGIYYCTWPRLRSSDWHFDVWGAGTTVTVSSASTKGPSVFPLAPSSKSTSGGTAALGCLVKDYFPEPVTVSWNSGALTSGVHTFPAVLQSSGLYSLSSVVTVPSSSLGTQTYICNVNHKPSNTKVDKKVEPKSCDKTHTCPPCPAPEAAGGPSVFLFPPKPKDTLMISRTPEVTCVVVDVSHEDPEVKFNWYVDGVEVHNAKTKPREEQYNSTYRVVSVLTVLHQDWLNGKEYKCKVSNKALGAPIEKTISKAKGQPREPQVCTLPPSRDELTKNQVSLSCAVKGFYPSDIAVEWESNGQPENNYKTTPPVLDSDGSFFLVSKLTVDKSRWQQGNVFSCSVMHEALHNHYTQKSLSLSPGGGGGSGGGGSGGGGSGGGGSEIVLTQSPGTLSLSPGERATLSCRASQSVTSSYLAWYQQKPGQAPRLLINVGSRRATGIPDRFSGSGSGTDFTLTISRLEPEDFAVYYCQQGIMLPPTFGQGTKVEIK
heavy 2: not shown
light: AIQMTQSPSSLSASLGGEVTITCKASQDINKNIAWYQHKPGRGPRLLIWYTSTLQTGIPSRFSGSGSGRDYSFTISNLEPEDFATYYCLQFDNLYTFGSGTKLEIRRTVAAPSVFIFPPSDEQLKSGTASVVCLLNNFYPREAKVQWKVDNALQSGNSQESVTEQDSKDSTYSLSSTLTLSKADYEKHKVYACEVTHQGLSSPVTKSFNRGEC
For B1, the EC50 in the assay with cynomolgus ICOS [1] was 3.5 nM; with human ICOS [4], 0.00139 nM; with human ICOS [5] it was 1.12 nM; in the assay with human FAP [9] it was 0.00198 nM; with cynomolgus ICOS [10], 2.09 nM; in the assay with human ICOS [11], 0.516 nM. The molecule further returned an EC50 in the assay with human FAP [12] of 2.97 nM. Also, the “EC50 of activation of Jurkat-NFAT reporter cell line” value with human ICOS [2] was found to be 4.44 nM. Further, the “Max (Counts/sec), Jurkat-NFAT reporter cell line” value with human ICOS [2] was 39700 Counts/sec. Besides, the concentration giving a half-maximal response (EC50 (read off the curve)) in the assay with human ICOS [3] was approximately 0.5 nM; with cynomolgus ICOS [6], approximately 3 nM; with cynomolgus ICOS [7], approximately 2 nM; with human FAP [8], approximately 2 nM. Further, the “Max (Log10(MFI))” value with human ICOS [11] is 3.06 Log10(MFI).

B2: Molecule 13, bispecific 2+1 anti-ICOS (1167)/anti-FAP (4B9) Crossfab-IgG P329G LALA inverted (bispecific antibody)
heavy 1: EVRLLESGGGLVQPGGSLRLSCAASGFTFNTYAVHWVRQAPGKGLEWVSGIGGSGVRTYYADSVKGRLTISRDNSKNTLYLQMNSLRAEDTAIYFCAKDIYVADFTGYAFDIWGQGTMVTVSSASTKGPSVFPLAPSSKSTSGGTAALGCLVEDYFPEPVTVSWNSGALTSGVHTFPAVLQSSGLYSLSSVVTVPSSSLGTQTYICNVNHKPSNTKVDEKVEPKSCDKTHTCPPCPAPEAAGGPSVFLFPPKPKDTLMISRTPEVTCVVVDVSHEDPEVKFNWYVDGVEVHNAKTKPREEQYNSTYRVVSVLTVLHQDWLNGKEYKCKVSNKALGAPIEKTISKAKGQPREPQVCTLPPSRDELTKNQVSLSCAVKGFYPSDIAVEWESNGQPENNYKTTPPVLDSDGSFFLVSKLTVDKSRWQQGNVFSCSVMHEALHNHYTQKSLSLSP
light 1: DIQMTQSPSSVSASVGDRVTITCRASQGINNFLAWYQQKPGKAPKLLIYDASSLQSGVPSRFAGSGSGTDFTLTISSLQPEDFATYYCQQYNFYPLTFGGGTMVEIKRTVAAPSVFIFPPSDRKLKSGTASVVCLLNNFYPREAKVQWKVDNALQSGNSQESVTEQDSKDSTYSLSSTLTLSKADYEKHKVYACEVTHQGLSSPVTKSFNRGEC
heavy 2: not shown
light 2: EVQLLESGGGLVQPGGSLRLSCAASGFTFSSYAMSWVRQAPGKGLEWVSAIIGSGASTYYADSVKGRFTISRDNSKNTLYLQMNSLRAEDTAVYYCAKGWFGGFNYWGQGTLVTVSSASVAAPSVFIFPPSDEQLKSGTASVVCLLNNFYPREAKVQWKVDNALQSGNSQESVTEQDSKDSTYSLSSTLTLSKADYEKHKVYACEVTHQGLSSPVTKSFNRGEC
Regarding B2, the binding result in the assay with human ICOS [13] is “binds”. Moreover, the EC50 with human FAP [14] came to 4.45 nM.

B3: Molecule 41, CEA(A5H1EL1D)-ICOS(1167) 1+1 human IgG1 P329GLALA (bispecific antibody)
heavy 1: EIVLTQSPATLSLSPGERATLSCRASSSVTYIHWYQQKPGQAPRSWIYATSNLASGIPARFSGSGSGTDFTLTISSLEPEDFAVYYCQHWSSKPPTFGQGTKLEIKSSASTKGPSVFPLAPSSKSTSGGTAALGCLVKDYFPEPVTVSWNSGALTSGVHTFPAVLQSSGLYSLSSVVTVPSSSLGTQTYICNVNHKPSNTKVDKKVEPKSCDKTHTCPPCPAPEAAGGPSVFLFPPKPKDTLMISRTPEVTCVVVDVSHEDPEVKFNWYVDGVEVHNAKTKPREEQYNSTYRVVSVLTVLHQDWLNGKEYKCKVSNKALGAPIEKTISKAKGQPREPQVCTLPPSRDELTKNQVSLSCAVKGFYPSDIAVEWESNGQPENNYKTTPPVLDSDGSFFLVSKLTVDKSRWQQGNVFSCSVMHEALHNHYTQKSLSLSP
light 1: EVQLLESGGGLVQPGGSLRLSCAASGFTFTDYYMNWVRQAPGKGLEWLGFIGNKANAYTTEYSASVKGRFTISRDKSKNTLYLQMNSLRAEDTATYYCTRDRGLRFYFDYWGQGTTVTVSSASVAAPSVFIFPPSDEQLKSGTASVVCLLNNFYPREAKVQWKVDNALQSGNSQESVTEQDSKDSTYSLSSTLTLSKADYEKHKVYACEVTHQGLSSPVTKSFNRGEC
heavy 2: not shown
light 2: B2 light 1
With B3, the binding result with human ICOS [15] was “binds”.
